# T1: bovine LPL (bovine, UniProt P11151 29-478, limits assumed)
# T1 sequence (looked up): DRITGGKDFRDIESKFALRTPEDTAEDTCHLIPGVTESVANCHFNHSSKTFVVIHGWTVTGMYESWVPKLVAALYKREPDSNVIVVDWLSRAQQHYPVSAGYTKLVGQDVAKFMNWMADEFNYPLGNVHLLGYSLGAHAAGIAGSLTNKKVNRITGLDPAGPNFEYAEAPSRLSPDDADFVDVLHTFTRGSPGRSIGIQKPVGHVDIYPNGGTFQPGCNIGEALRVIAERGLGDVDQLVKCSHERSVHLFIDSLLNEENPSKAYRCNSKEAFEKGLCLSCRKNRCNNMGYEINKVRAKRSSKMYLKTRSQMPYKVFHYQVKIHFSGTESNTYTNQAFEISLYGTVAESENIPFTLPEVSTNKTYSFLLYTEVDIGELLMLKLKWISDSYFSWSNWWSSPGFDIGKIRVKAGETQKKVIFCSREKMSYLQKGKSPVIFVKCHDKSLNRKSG
# T2: hANGPTL3(17-169)-mFc (human)
# T2 construct: also called N-terminal coiled-coil domain of hANGPTL3 with a C-terminal mouse Fc fusion
# T2 chain: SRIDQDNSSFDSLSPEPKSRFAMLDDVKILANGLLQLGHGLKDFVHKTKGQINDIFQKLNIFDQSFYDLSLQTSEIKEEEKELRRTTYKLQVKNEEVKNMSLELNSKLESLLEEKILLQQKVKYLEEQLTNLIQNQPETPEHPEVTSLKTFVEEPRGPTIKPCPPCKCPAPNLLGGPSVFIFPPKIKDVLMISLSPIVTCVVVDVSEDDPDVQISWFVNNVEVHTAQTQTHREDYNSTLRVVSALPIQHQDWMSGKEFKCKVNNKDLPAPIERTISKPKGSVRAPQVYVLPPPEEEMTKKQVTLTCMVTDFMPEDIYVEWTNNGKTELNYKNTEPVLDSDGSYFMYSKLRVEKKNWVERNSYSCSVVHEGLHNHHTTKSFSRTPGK
# B1: H4H1263S (antibody, IgG4, V domains shown)
# VH: QVQLVQSGGGVVQPGRSLRLSCAASGFTFSTYGMHWVRQAPGKGLEWMAVISFDRGNKYYADSVKGRFTISRDNSKNTLYLQMNSLRAEDTAVYYCAKGGGSGTFYYYYGMDVWGQGTTVTVSS
# VL: DIQMTQSPSSVSASVGNRVTITCRASQGISSWLAWYHQKPGKVPKVLIYAASSLQSGVPSRFSGSGSGTDFTLTISSLQPEDFATYYCQQANSFPFTFGPGTKVEIKR
# B2: H4H1248P (antibody, IgG4, V domains shown)
# VH: QVQLVESGGGVVQPGRSLRLSCAASGFTFSSYGMHWVRQAPGKGLEWVAVISYDGSNKYYADSVKGRFTISRDNSKNTLYLQMNSLRAEDTAVYYCAKVGATTFYYYYGMDVWGQGTTVTVSS
# VL: DIQMTQSPSSVSAFVGDRVTITCRASQGISSWLAWYQQKPGKAPKLLIYAASSLQSGVPSRFSGSGSGTDFTLTISSLQPEDFATYYCQKANSFPFTFGPGTKVEIK
# B3: hANGPTL3(17-170)-His (other)
# chain: SRIDQDNSSFDSLSPEPKSRFAMLDDVKILANGLLQLGHGLKDFVHKTKGQINDIFQKLNIFDQSFYDLSLQTSEIKEEEKELRRTTYKLQVKNEEVKNMSLELNSKLESLLEEKILLQQKVKYLEEQLTNLIQNQPETPEHPEVTSLKTFVEKHHHHHH
# B4: mANGPTL3(17-455)-His (other)
# chain: SRVDPDLSSFDSAPSEPKSRFAMLDDVKILANGLLQLGHGLKDFVHKTKGQINDIFQKLNIFDQSFYDLSLRTNEIKEEEKELRRTTSTLQVKNEEVKNMSVELNSKLESLLEEKTALQHKVRALEEQLTNLILSPAGAQEHPEVTSLKSFVEQQDNSIRELLQSVEEQYKQLSQQHMQIKEIEKQLRKTGIQEPSENSLSSKSRAPRTTPPLQLNETENTEQDDLPADCSAVYNRGEHTSGVYTIKPRNSQGFNVYCDTQSGSPWTLIQHRKDGSQDFNETWENYEKGFGRLDGEFWLGLEKIYAIVQQSNYILRLELQDWKDSKHYVEYSFHLGSHETNYTLHVAEIAGNIPGALPEHTDLMFSTWNHRAKGQLYCPESYSGGWWWNDICGENNLNGKYNKPRTKSRPERRRGIYWRPQSRKLYAIKSSKMMLQPTTHHHHHHHHHH
# B5: MfANGPTL3(17-170)-mmH (other)
# chain: SRIDQDNSSFDSVSPEPKSRFAMLDDVKILANGLLQLGHGLKDFVHKTKGQINDIFQKLNIFDQSFYDLSLQTSEIKEEEKELRRTTYKLQVKNEEVKNMSLELNSKLESLLEEKILLQQKVKYLEEQLTNLIQNQPATPEHPEVTSLKSFVEKEQKLISEEDLGGEQKLISEEDLHHHHHH
# B6: hANGPTL3(17-460)-His (other)
# chain: SRIDQDNSSFDSLSPEPKSRFAMLDDVKILANGLLQLGHGLKDFVHKTKGQINDIFQKLNIFDQSFYDLSLQTSEIKEEEKELRRTTYKLQVKNEEVKNMSLELNSKLESLLEEKILLQQKVKYLEEQLTNLIQNQPETPEHPEVTSLKTFVEKQDNSIKDLLQTVEDQYKQLNQQHSQIKEIENQLRRTSIQEPTEISLSSKPRAPRTTPFLQLNEIRNVKHDGIPAECTTIYNRGEHTSGMYAIRPSNSQVFHVYCDVISGSPWTLIQHRIDGSQNFNETWENYKYGFGRLDGEFWLGLEKIYSIVKQSNYVLRIELEDWKDNKHYIEYSFYLGNHETNYTLHLVAITGNVPNAIPENKDLVFSTWDHKAKGHFNCPEGYSGGWWWHDECGENNLNGKYNKPRAKSKPERRRGLSWKSQNGRLYSIKSTKMLIHPTDSESFEHHHHHHHHHH
# B7: H4H1296P (antibody, IgG4, V domains shown)
# VH: QVQLVESGGVSVKPGGSLRLSCAASGFTFSDYYMSWIRQAPGKGLEWVSYIGSSGTNDYYADSVKGRFTISRDNAKNSLYLQMDSLRAEDTAVYYCARDSSQMGFDYWGQGTLVTVSS
# VL: DIQMTQSPSSLSASVGDRVTITCRASQNIINFLNWYQQRPGKAPQLLIYVAASLQSGVPSRFTGSGYGTDFTLTISSLQPEDFATYYCQQTYTNPLTFGGGTKVEIKR
# B8: H4H1295P (antibody, V domains shown)
# VH: QVQLVQSGPEVKKPGASVRVSCKASGYLSDFIITWVRQAPGQGLEWMGWISTYSGDTDSAPKFQGRVTMTTDTSTTTVFLELRSLRSDDTAVYYCARGRLFDYWGQGTLVTVSS
# VL: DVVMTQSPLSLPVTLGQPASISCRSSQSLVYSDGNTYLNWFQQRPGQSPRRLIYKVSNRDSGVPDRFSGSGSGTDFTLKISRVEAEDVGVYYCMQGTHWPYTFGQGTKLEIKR
# B9: H4H1282P (antibody, IgG4, V domains shown)
# VH: EVQLVQSGGGVVQPGRSLRLSCAASGFTFSNYGMHWVRQAPGKGLEWVAVVWYDGDNKYYADSVKGRFTISRDNSKNTLYLQMNSLRAEDTAVYYCARDIITSRPTLDYWGQGTLVTVSS
# VL: DIQLTQSPSFLSASVGDRVTITCWASQGINSYLAWYQQKPGKAPKLLIYPASTLQSGVPSRFSGSGSGTEFTLTISSLQPVDFATYYCQQLNSYPLTFGGGTKVEIKR
# B10: H4H1268S (antibody, IgG4, V domains shown)
# VH: QVQLQQSGPGLVKPSQTLSLTCAISGDSVSSNSPAWNWIRQSPSRGLEWLGRTYYRSKWYNDYAVSVRGRITINPDTSNNQFSLHLNSVTPEDTAMYYCARDKGLTARPTYFDYWGQGTLVTVSS
# VL: DIQMTQSPSTLSASVGDRVTITCRASQSINYWLAWYQQKPGKAPKPLIYKASSLESGVPSRFSGSGSGTEFTLTISSLQPDDFTTYYCQQYNSYSPTFGQGTKLEIKR
# Target: B4
# Assay: SPR Biacore, antigen captured, 37C, pH 7.4, HBS-EP
# Protocol: (§1) All kinetic binding experiments were performed at 25° C. or 37° C. on a BIACORE™ T200 label-free molecular interaction instrument (GE Healthcare) using a CM5 sensor chip. Briefly, an antigen capture surface was generated by covalently coupling either an anti-mouse IgG-specific antibody (anti-mFc; GE Healthcare; catalog #BR-1008-38) or an anti-pentahistidine-specific antibody (Qiagen; catalog #34660) to the surface of a CM5 sensor chip using a standard amine coupling method.
row,Binder,binding result
1,B1,no binding
2,B2,no binding

# Target: B6
# Assay: SPR Biacore, antigen captured, 37C, pH 7.4, HBS-EP
# Protocol: as §1
Binder,Kd,koff,kon,t1/2
B1,0.381 nM,0.00181 s⁻¹,4.74e+06 M⁻¹ s⁻¹,6 min
B2,0.986 nM,0.00193 s⁻¹,1.96e+06 M⁻¹ s⁻¹,6 min

# Target: T1, bovine LPL
# Assay: cell-based or functional assay
row,Binder,"EC50 (nM), inhibition of LPL activity"
1,B3,91 nM
2,B4,33 nM
3,B5,625 nM
4,B6,50 nM

# Target: T2, hANGPTL3(17-169)-mFc
# Assay: SPR Biacore, antigen captured, 25C, pH 7.4, HBS-EP
# Protocol: as §1
Binder,Kd,koff,kon,t1/2
B1,6.23 nM,0.00422 s⁻¹,677000 M⁻¹ s⁻¹,3 min
B7,0.0611 nM,3.92e-05 s⁻¹,641000 M⁻¹ s⁻¹,295 min
B8,0.226 nM,7.95e-05 s⁻¹,352000 M⁻¹ s⁻¹,145 min
B9,0.0463 nM,5.92e-05 s⁻¹,1.28e+06 M⁻¹ s⁻¹,195 min
B10,0.721 nM,0.000835 s⁻¹,1.16e+06 M⁻¹ s⁻¹,14 min
B2,5.95 nM,0.00272 s⁻¹,457000 M⁻¹ s⁻¹,4 min

# Target: B6
# Assay: SPR Biacore, antigen captured, 25C, pH 7.4, HBS-EP
# Protocol: as §1
Binder,Kd,koff,kon,t1/2
B1,2.47 nM,0.00126 s⁻¹,508000 M⁻¹ s⁻¹,9 min
B7,0.137 nM,4.12e-05 s⁻¹,301000 M⁻¹ s⁻¹,280 min
B8,0.197 nM,7.35e-05 s⁻¹,373000 M⁻¹ s⁻¹,157 min
B9,0.0968 nM,9.26e-05 s⁻¹,957000 M⁻¹ s⁻¹,125 min
B10,1.47 nM,0.00189 s⁻¹,1.29e+06 M⁻¹ s⁻¹,6 min
B2,5.62 nM,0.00247 s⁻¹,440000 M⁻¹ s⁻¹,5 min

# From patent US20150197564A1 (Regeneron, published 2015)
